Assay results published in article PMC9172071, “Peach fruit PpNAC1 activates PpFAD3-1 transcription to provide ω-3 fatty acids for the synthesis of short-chain flavor volatiles”.

Target: GST-PpNAC1 (Prunus persica (peach), UniProt M5WG30 1-363)
Assay: EMSA; LightShift Chemiluminescent EMSA kit (Thermo Fisher); buffer, salt, pH and temperature not stated (refers to previous study)
Details: protein: recombinant; tags: GST (N-terminal, pGEX-4T-1); chain copies: 2; blunt

Sequence of GST-PpNAC1 (M5WG30 entry or part of it): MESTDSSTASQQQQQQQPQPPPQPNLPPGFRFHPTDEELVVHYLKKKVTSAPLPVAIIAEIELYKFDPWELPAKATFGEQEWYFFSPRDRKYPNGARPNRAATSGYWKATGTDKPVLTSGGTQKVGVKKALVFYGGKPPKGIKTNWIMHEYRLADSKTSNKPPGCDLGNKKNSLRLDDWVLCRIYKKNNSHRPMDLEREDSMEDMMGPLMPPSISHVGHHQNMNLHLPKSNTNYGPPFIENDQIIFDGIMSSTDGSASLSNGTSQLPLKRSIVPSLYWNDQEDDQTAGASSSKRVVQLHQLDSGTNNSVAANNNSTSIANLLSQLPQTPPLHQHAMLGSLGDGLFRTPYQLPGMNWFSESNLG

B1: Mutant-Probe1 (dsDNA)
DNA 1: AACCCCGCAGCAGCGTGCACTTTACCTGGTG
DNA 2: CACCAGGTAAAGTGCACGCTGCTGCGGGGTT
binding result: no binding
